{
  "source": "patent US20250361277A1",
  "about": "“PROTEASE-RESPONSIVE SURFACE-POTENTIAL-TUNABLE PEPTIDE CONSTRUCTS FOR SELECTIVE IMAGING AND ACCURATE INHIBITOR SCREENING” (The Regents of the University of California, priority 2024, published 2025)",
  "key": {"[1]": {"test": "DLS hydrodynamic size and zeta potential of PSGMR without and with Mpro", "assay_type": "physicochemical", "protocol": "To validate the enzyme digestion efficiency, PSGMR was incubated with different concentrations of Mpro. […] No increase in fluorescence was detected in the presence of the GC376, thus showing that the fluorescence increase was due to Mpro-mediated peptide cleavage. […] PSGMR was also treated under identical conditions with several commercial proteins to investigate probe specificity: papain-like protease, thrombin, bovine serum albumin, and hemoglobin. […] Dynamic light scattering (DLS) tests and transmission electron microscopy (TEM) of PSGMR were performed to de-termine the change of particle size and surface potential distribution after incubation with Mpro. The average hydro-dynamic size of PSGMR increased from 142 nm to 396 nm (FIG. 1h), and the mean zeta potential value decreased from 23.97 mV to 12.46 mV (FIG. 1i). […] This aggregation was confirmed by TEM (FIG. 1j). The 20 mM Tri-HCl buffer can lead to a uniform nanoparticle (˜78 nm) (Figure S18), and β-sheet structure of PSGMR was observed after incubation with Mpro or at high concentrations (Figures S19-S22).\nThe 1H and 13C NMR spectra were measured on a BRUKER ARX 300™ NMR spectrometer using chloroform-d (CDCl3-d) or dimethyl sulfoxide-d6 (DMSO-d6) as solvent and tetramethylsilane (TMS) as internal reference. Splitting patterns are reported as s (single), d (doublet), t (triplet), and m (multiplet). Peptides were synthesized using an AAPPTec ECLIPSE™ system through standard solid phase Fmoc syntheses on rink-amide resin. Electrospray ionization mass spectrometry (ESI-MS) data was acquired by using a MICROMASS QUATTRO ULTIMA™ mass spectrometer. High resolution mass spectra (HRMS) were recorded on a BRUKER MICROTOF II™ mass spectrometer system. High performance liquid chromatography (HPLC) was performed by using a SHIMADZU™ LC-40 HPLC system under the wavelength of 195 nm, 254 nm, and 405 nm. The sample was dissolved in water or acetonitrile, applied on a ZORBAX 300 BS™ C18 column (5 um, 9.4×250 mm) from Agilent, and eluted at 1.5 mL/min with a 40 min gradient from 10% to 95% solvent B where solvent A is water (0.05% TFA solution) and solvent B is acetonitrile (0.05% TFA solution). All products were purified by HPLC to reach a purity of 90%. UV-Vis absorption and fluorescence spectra were performed on a SYNERGY H1™ microplate reader (BioTek). Confocal laser scanning microscopy images were obtained on a Zeiss LSM880 confocal laser scanning microscope (Zeiss). Dynamic light scattering (DLS) measurements were performed on a NANO-ZS90 ZETASIZER™ (Malvern) to determine hydrodynamic sizes and zeta potential values of the nanosystems studied. Transmission electron microscopy (TEM) images were acquired using an FEI TECNAI F20™ instrument at an operation voltage of 200 kV."}, "[2]": {"system": "plasmid transfected HEK 293T cells", "assay_type": "cell-based"}, "[3]": {"system": "SARS-CoV-2 infected TMPRSS2-Vero cells", "assay_type": "cell-based, SARS-CoV-2 (USA-WA1/2020)"}, "[4]": {"target": "Recombinant SARS-CoV-2 Mpro (Severe acute respiratory syndrome coronavirus 2, UniProt P0DTD1)", "conditions": "pH 8"}, "Recombinant Mpro": {"target": "Recombinant Mpro (Severe acute respiratory syndrome coronavirus 2, UniProt P0DTD1)"}, "HEK 293T cells": {"system": "HEK 293T cells", "conditions": "HEK 293T cells, 48 h"}, "[5]": {"system": "Mpro plasmid-transfected HEK 293T cells"}, "[6]": {"system": "noninfected TMPRSS2-Vero cells"}},
  "data": [
    {"substance": "(Pra)KLVFFGGGSAVLQ/SGFRKMAGGGRRRRRR [PSGMR]", "values": [
      {"measurement": "average hydrodynamic size", "setting": "[1]; after incubation with Mpro", "result": 396, "unit": "nm"},
      {"measurement": "mean zeta potential value", "setting": "[1]; after incubation with Mpro", "result": 12.46, "unit": "mV"},
      {"measurement": "average hydrodynamic size", "setting": "[1]; before incubation with Mpro", "result": 142, "unit": "nm"},
      {"measurement": "mean zeta potential value", "setting": "[1]; before incubation with Mpro", "result": 23.97, "unit": "mV"},
      {"measurement": "fluorescence of FLIPGFP, PSGMR", "setting": "[2]", "result": "weak green and yellow fluo-rescence"},
      {"measurement": "fluorescence of FLIPGFP, PSGMR and PI", "setting": "[2]", "result": "Strong green, yellow and red fluorescence"},
      {"measurement": "green, red and yellow fluorescence intensities with incubation time", "setting": "[2]", "result": "markedly enhanced with the longer incubation time"},
      {"measurement": "killing / inhibition of infected cells", "setting": "[3]", "result": "can selectively kill SARS-CoV-2-infected cells"},
      {"measurement": "yellow (probe) and red (PI) fluorescence in infected cells", "setting": "[3]", "result": "strong yellow and red fluorescence"},
      {"measurement": "yellow and red fluorescence of infected cells", "setting": "[3]; 10 μM probe", "result": "significantly enhanced"},
      {"measurement": "average red fluorescence intensity of infected cells, higher than with PMR", "setting": "[3]; PI channel", "result": 600, "unit": "%"},
      {"measurement": "red and yellow fluorescence and cell morphology of infected cells", "setting": "[3]; PSGMR versus PMR", "result": "bright red and yellow fluorescence with obvious cell mor-phologic dilatation"},
      {"measurement": "average yellow fluorescence intensity of infected cells, higher than with PMR", "setting": "[3]; probe channel", "result": 569, "unit": "%"},
      {"measurement": "cleavage by Mpro", "setting": "[4]", "result": "can be cleaved by Mpro between Q and S"},
      {"measurement": "aggregation and fluorescence on incubation with Mpro (time-dependent spectra)", "setting": "Recombinant Mpro", "result": "can aggregate easily with strong fluorescence"},
      {"measurement": "fluorescence intensity with different concentrations of Mpro", "setting": "Recombinant Mpro", "result": "gradually enhanced with in-creasing Mpro concentration"},
      {"measurement": "probe specificity: fluorescence intensity with different proteins", "setting": "Recombinant Mpro", "result": "clearly enhanced selectively with Mpro"},
      {"measurement": "time to fluorescence plateau at 590 nm", "setting": "Recombinant Mpro", "result": "≤ 20", "unit": "min"},
      {"measurement": "high concentration that caused significant cytotoxicity", "setting": "HEK 293T cells", "result": 40, "unit": "µM"},
      {"measurement": "cell viability after incubation with probe", "setting": "[5]; Mpro plasmid-transfected cells", "result": "decreased"},
      {"measurement": "cytotoxicity (metabolic activity)", "setting": "[5]; Mpro plasmid, higher concentration of 10 μM, 48 h", "result": "obviously cytotoxic"},
      {"measurement": "red and yellow fluorescence and cell morphology of noninfected cells", "setting": "[6]", "result": "weak red and yellow fluorescence with normal cell morphology"}
    ]}
  ]
}
